First the molecules themselves.
B1: LINE1-mini (parent)
chain: GGCAGAGCUCAACACAGCGUGGCAAAGUGGCUGUGGCUAGACUGCC

In this series the parent is B1. Description: self-cleavage, relative activity (ratio to wild type); higher = more cleavage; in vitro, sequencing; the parent is a self-cleaving ribozyme.
Consider G2U A41C, for which the self-cleavage is 0.02.
In the case of G2U A41U, the self-cleavage worked out at 0.08.
Consider G2U A41G, for which the self-cleavage amounted to 0.09.
Consider C3A G5A, for which the self-cleavage came out at 0.5.
The figure for C3A G5C is 0.31.
The result for C3A G5U reads 0.28.
With C3A A26G, the self-cleavage was 0.67.
The figure for C3A A26U is 0.49.
The figure for C3A A26C is 0.44; for G2C C46G it is 0.16; for G2C C46A it is 0.09.
The result for G2C C46U reads 0.07; that for G2U A39G, 0.04; that for G2U A39C, 0.03.
G2U A39U: the self-cleavage came to 0.04.
The result for G2U C15U reads 0.05; that for G2U C15G, 0.02.
In the case of G2U C15A, the self-cleavage came to 0.04.
For G2U A26C, the self-cleavage came to 0.09.
The figure for G2U A26G is 0.13.
The result for G2U A26U reads 0.11; that for G2U G22C, 0.12; that for G2U G22U, 0.11.
The result for G2U G22A reads 0.11; that for G2C A25C, 0.15.
With G2C A25U, the self-cleavage worked out at 0.08.
For the variant G2C A25G, the self-cleavage was 0.06.
The result for G2U U38C reads 0.05; that for G2U U38G, 0.02; that for G2U U38A, 0.05.
Take G2U C37A: the self-cleavage was 0.03.
The result for G2U C37U reads 0.05; that for G2U C37G, 0.04; that for G2C U20G, 0.05.
The result for G2C U20A reads 0.06.
Regarding G2C U20C, the self-cleavage came to 0.08.
Take G2C C45U: the self-cleavage is 0.19.
The result for G2C C45A reads 0.25; that for G2C C45G, 0.61; that for G2U G30C, 0.1.
The figure for G2U G30A is 0.09.
The figure for G2U G30U is 0.1.
For the variant G2C G5C, the self-cleavage is 0.02.
As to G2C G5U, the self-cleavage was determined as 0.03.
The result for G2C G5A reads 0.05; that for C3A A41U, 0.32; that for C3A A41G, 0.22.
The result for C3A A41C reads 0.15; that for G2C C13A, 0.08.
The figure for G2C C13U is 0.18.
With G2C C13G, the self-cleavage came to 0.03.
Consider C3A A4C, for which the self-cleavage was determined as 0.25.
The result for C3A A4G reads 0.17.
Consider C3A A4U, for which the self-cleavage turned out to be 0.38.
Regarding G2C G19A, the self-cleavage was determined as 0.17.
The result for G2C G19C reads 0.16.
The figure for G2C G19U is 0.11; for G2C C15A it is 0.06.
The figure for G2C C15U is 0.11.
As for G2C C15G, the self-cleavage is 0.02.
The result for G2U C13G reads 0.02; that for G2U C13A, 0.06; that for G2U C13U, 0.06.
The result for G2C G21A reads 0.51.
The result for G2C G21C reads 0.25; that for G2C G21U, 0.12; that for G2U A25G, 0.03.
As for G2U A25C, the self-cleavage was found to be 0.05.
The figure for G2U A25U is 0.08.
The result for G2C A24U reads 0.15; that for G2C A24G, 0.09.
Regarding C3A G22A, the self-cleavage amounted to 0.52.
As for C3A G22U, the self-cleavage is 0.71.
The result for C3A G22C reads 0.58; that for G2C G27A, 0.13; that for G2C G27U, 0.14.
The figure for G2C G27C is 0.12.
The result for C3A C8G reads 0.3.
For C3A C8U, the self-cleavage amounted to 0.69.
The figure for C3A C8A is 0.85.
With G2U G7A, the self-cleavage turned out to be 0.07.
The figure for G2U G7C is 0.04; for G2U G7U it is 0.05.
The result for G2U G19U reads 0.05.
The result for G2U G19A reads 0.08; that for G2U G19C, 0.03; that for G2C C31A, 0.07.
For G2C C31U, the self-cleavage was determined as 0.08.
For G2C C31G, the self-cleavage came out at 0.06.
The figure for G2U C23A is 0.16; for G2U C23U it is 0.15; for G2U C23G it is 0.04.
Consider G2C C23U, for which the self-cleavage was 0.16.
The result for G2C C23A reads 0.08; that for G2C C23G, 0.12; that for C3A A24U, 0.51.
On to C3A A24G, for which the self-cleavage was 0.78.
The result for C3A A24C reads 0.27.
The result for G2U U32G reads 0.03; that for G2U U32C, 0.03; that for G2U U32A, 0.03.
With G2C G7U, the self-cleavage is 0.28.
G2C G7A: the self-cleavage came to 0.06.
The figure for G2C G7C is 0.14.
The result for G2C A26U reads 0.09.
The figure for G2C A26G is 0.11.
Turning to G2C A26C, the self-cleavage was 0.11.
The figure for G2C A39U is 0.1.
The figure for G2C A39G is 0.09; for G2C A39C it is 0.09; for C3A A12G it is 0.12.
The result for C3A A12C reads 0.07; that for C3A A12U, 0.57.
On to G2U C45U, for which the self-cleavage stood at 0.11.
Regarding G2U C45A, the self-cleavage came out at 0.45.
The result for G2U C45G reads 0.23; that for G2C U32A, 0.17; that for G2C U32G, 0.02.
The figure for G2C U32C is 0.08; for G2U C31G it is 0.03; for G2U C31U it is 0.02.
The figure for G2U C31A is 0.04; for G2U U43G it is 0.02; for G2U U43A it is 0.04.
G2U U43C: the self-cleavage is 0.06.
The figure for G2U A6G is 0.03; for G2U A6C it is 0.04.
The figure for G2U A6U is 0.16; for C3A C10G it is 0.05.
The result for C3A C10A reads 0.07; that for C3A C10U, 0.19; that for G2U G21A, 0.25.
On to G2U G21U, for which the self-cleavage was determined as 0.14.
The result for G2U G21C reads 0.09; that for G2U A16G, 0.05.
The result for G2U A16C reads 0.13; that for G2U A16U, 0.02.
The figure for G2U U28C is 0.06; for G2U U28G it is 0.04.
As for G2U U28A, the self-cleavage turned out to be 0.07.
The figure for G2U A24G is 0.06.
The figure for G2U A24C is 0.07; for G2U A24U it is 0.19; for G2U G29A it is 0.09.
The result for G2U G29U reads 0.11; that for G2U G29C, 0.04.
In the case of G2U G17A, the self-cleavage came to 0.03.
The figure for G2U G17U is 0.04; for G2U G17C it is 0.05; for C3A C15U it is 0.41.
The result for C3A C15G reads 0.09; that for C3A C15A, 0.24.
The result for G2C G17C reads 0.05; that for G2C G17A, 0.08; that for G2C G17U, 0.06.
Consider C3A A6U, for which the self-cleavage came out at 0.76.
The figure for C3A A6G is 0.2; for C3A A6C it is 0.38; for G2C G36A it is 0.25.
The figure for G2C G36C is 0.04.
The result for G2C G36U reads 0.1; that for C3A C45G, 0.42; that for C3A C45A, 0.48.
On to C3A C45U, for which the self-cleavage came out at 0.53.
Take C3A G21A: the self-cleavage was determined as 1.23.
The result for C3A G21U reads 0.47.
The figure for C3A G21C is 0.23.

For the origin of these results see the RNAGym collection of RNA variant scans (doi:10.7554/elife.90254).
